± gives the standard deviation.
Test: protein stability index of a GFP-peptide fusion (GPS, HEK-293T) (PSI 1-6); higher = more stable
Conditions: c terminus: a fixed tail appended
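Note: 24-mer peptide tiles fused after GFP, lentivirally expressed, FACS-sorted into six equal bins by GFP/DsRed ratio, decoded by Illumina sequencing, PSI is the read-weighted mean bin number.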

| Sequence | protein stability index (treatment: DMSO) | protein stability index (treatment: MLN4924 1 uM, 8 h) |
| --- | --- | --- |
| CPEVKLKTTGLEEAAEAETAKDNG [SRPK2] | 5.5 ± 0.27 | 5.49 ± 0.26 |
| QFTAWPDHGVPEHPTPFLAFLRRV [PTPRD] | 2.44 ± 0.2 | 2.76 ± 0.26 |
| GIVGLNNIKANDYANAVLQALSNV [USP39] | 2.25 ± 0.42 | 2.25 ± 0.45 |
| RKTHVLLGRSHDTVQEAATSRRAR [MFSD9] | 4.64 ± 0.41 | 4.73 ± 0.27 |
| ANPYWTSRGSSVSMSGGRFRCPTC [TRIM63] | 2.65 ± 0.47 | 3.1 ± 0.4 |
| WYWHGDVNSNKVVMSGVKCSGTEL [LOXL2] | 2.68 ± 0.53 | 2.75 ± 0.28 |
| QTEKTTRVRTVLNEKQLHTLRTCY [ISL2] | 2.66 ± 0.24 | 2.8 ± 0.33 |
| IYDNAVQGLRRHEILQWVLQTDSQ [LRRC59] | 2.56 ± 0.2 | 2.64 ± 0.35 |
| ELAELEDALRNLKCGSGARGGDGE [TRADD] | 4.7 ± 0.39 | 4.66 ± 0.07 |
| GSILQFNPEVGIFVSIAQSEQESL [SMG5] | 3.07 ± 0.38 | 2.92 ± 0.18 |
| PRSTVRQKVASNHSPFSSESRALS [TBX5] | 4.11 ± 0.25 | 4.15 ± 0.19 |
| NEGLMKWENRHEGVFKFLRSEAVA [ELF3] | 3.01 ± 0.11 | 3.09 ± 0.22 |
| GRNDLQQWIEVDARRLTRFTGVIT [CPXM2] | 2.43 ± 0.062 | 2.56 ± 0.12 |
| ESTRELGELLGEARYYLVQGLIED [KCTD13] | 2.88 ± 0.19 | 2.91 ± 0.31 |
| PGGPGAMTESLEASEFLEQSMSQT [RSPH3] | 5.27 ± 0.28 | 5.16 ± 0.17 |
| LLTVTATDRDEGANGEVTYSFRKL [PCDHGA10] | 4.1 ± 0.26 | 4.15 ± 0.33 |
| HESVCKYYLCGFCPAELFTNTRSD [LUC7L3] | 2.17 ± 0.33 | 2.54 ± 0.29 |
| WHTIAPMGTRRKHLGCAVYQDMIY [KLHL20] |  | 1.93 ± 0.96 |
| KLIRDFDEKQQEANETLAEMEEEL [VTI1B] | 4.89 ± 0.32 | 5.3 ± 0.19 |
| LCKSVLEIERAIKQTQCPADPLQL [FEM1C] | 3.17 ± 0.13 | 3.11 ± 0.26 |
| AAPEGKRSLANGPNAGEQPGQVAG [EID1] | 5.44 ± 0.38 | 5.22 ± 0.16 |
| ETETLVTREAVTEILGIEPDREKG [TSN] | 5.5 ± 0.19 | 5.39 ± 0.33 |
| GHEEWVGSAYLFVESSLDKVVLSD [TRADD] | 2.41 ± 0.45 | 2.45 ± 0.55 |

| Sequence | protein stability index (treatment: DMSO) | protein stability index (treatment: MLN4924 1 uM, 8 h) |
| --- | --- | --- |
| YYSVETVTLLVALKVRYRERITIL [PPP2CA] | 2.63 ± 0.69 | 2.56 ± 0.58 |
| IFNNVMTLCAMLPLLLFTYLNSFL [SLC29A1] | 3.25 ± 0.25 | 3.23 ± 0.2 |
| QAQGARAGGSARRPDTGDDAAGHG [GMCL1] | 5.41 ± 0.4 | 5.57 ± 0.35 |
| KDRETSKVIYDFIEKTGGVEAVKN [WASL] | 3.28 ± 0.068 | 3.37 ± 0.078 |
| EAFKNILTEIYRIVSQKQIADRAA [RAB11B] | 2.81 ± 0.4 | 2.81 ± 0.49 |
| EQEIQFEDFTNTLRELGHAEHEIT [PKD2L1] | 5.16 ± 0.2 | 5.17 ± 0.32 |
| ETVDLVLKLKNKLLQADREHLPVK [DENND6A] | 2.86 ± 0.41 | 2.72 ± 0.38 |
| SESTNTTIEDEDTKVRKQEIIKVT [CAMK2A] | 5.32 ± 0.24 | 5.31 ± 0.18 |
| RHQKIHSGEKPYKCSDCGKAFLTK [ZNF649] | 3.07 ± 0.069 | 3.25 ± 0.31 |
| EMYQVSRLQHICELFIITQLQSMP [RHOBTB3] | 2.21 ± 0.23 | 2.16 ± 0.44 |
| PLLHKDSASLEVVKKDHVALQVPR [CBY2] | 4.31 ± 0.095 | 4.3 ± 0.49 |
| WIFVNLTVRFCILGKESFYDTFHT [HACD3] | 3.29 ± 0.26 | 3.05 ± 0.12 |
| FFCEGVKIIFRVGLVLLKHALGSP [TBC1D10A] | 1.98 ± 0.54 | 2.11 ± 0.36 |
| IREDEVHRLGSPYGHCTAGGEGVE [SCNN1D] | 4.8 ± 0.26 | 4.85 ± 0.11 |
| ASIQNHVRKREAPAPEAESKQTEK [EFHC1] | 5.36 ± 0.28 | 5.32 ± 0.37 |
| EILPFLYLGSAYHASKCEFLANLH [DUSP5] | 2.94 ± 0.5 | 2.92 ± 0.75 |
| LRKGYLFMYNLVQFLGFSWIFVNL [HACD3] | 3.5 ± 0.29 | 3.22 ± 0.31 |
| AHELGHSLGLSHSTDIGALMYPSY [MMP1] | 3.14 ± 0.18 | 2.9 ± 0.14 |
| DDIARIYQPKRYALSPKTTITMAH [FAM98B] | 2.77 ± 0.21 | 2.92 ± 0.17 |
| PAVRQLLPCARVQICRAQGLETLF [ZSWIM9] | 2.19 ± 0.49 | 2.5 ± 0.64 |
| GGCGGPRAWSQCGGGGLRAWSQRS [CPOX] | 2.73 ± 0.74 | 2.56 ± 0.46 |
| AKVDGETASDSESRAESAPLPVSA [CDS2] | 5.57 ± 0.15 | 5.5 ± 0.27 |
| RERNMAPDLRQDFNMMEQKKRVSM [ADD1] | 4.53 ± 0.11 | 4.5 ± 0.092 |

| Sequence | protein stability index (treatment: DMSO) | protein stability index (treatment: MLN4924 1 uM, 8 h) |
| --- | --- | --- |
| SFGQVVKAYDHQTQELVAIKIIKN [DYRK1B] | 2.76 ± 0.31 | 2.97 ± 0.2 |
| KGKFSTDTKGKPTSRTQVYKPPAL [ZC2HC1A] | 3.77 ± 0.19 | 3.8 ± 0.15 |
| EEAEGARWTSYRFSRVCRLHRGQL [TRIM35] | 2.91 ± 0.23 | 3 ± 0.08 |
| LFLGIHVFLVSCALPDSVLRRFVV [AUP1] | 3.03 ± 0.52 | 2.97 ± 0.63 |
| EAAGVVVEEELFHQQGTPRASNRS [LMNB1] | 5.31 ± 0.41 | 5.47 ± 0.14 |
| KMDMSVLEISGIIMSRVNAYQQGV [PHTF1] | 2.5 ± 0.54 | 2.48 ± 0.49 |
| YHTGKTPFVCPECGQPCSQKSGLI [ZNF649] | 2.53 ± 0.59 | 3.24 ± 0.58 |
| NSDRMTHCGVLEFVADEGICYLPH [UFD1] | 2.87 ± 0.17 | 2.68 ± 0.36 |
| GGTSSNNSEEEEDDDDEEEEVSEV [ANKRD17] | 5.5 ± 0.23 | 5.54 ± 0.16 |
| KDVSRCVAERKYTQEQARKEFQQV [SMOC2] | 4.49 ± 0.16 | 4.51 ± 0.38 |
| TAAVLGLICEGLYPASIVDEPTFK [ZBED1] | 2.17 ± 0.26 | 2.19 ± 0.6 |
| FKCNYCGKSFRQRPSLVIHLRIHT [ZNF449] | 3.15 ± 0.46 | 3.35 ± 0.24 |
| QKLEREARICRLLKHPNIVRLHDS [CAMK2A] | 2.5 ± 0.13 | 2.72 ± 0.17 |
| EDHKPGTFPKALTNGSFSPSGNNG [DLC1] | 4.89 ± 0.11 | 4.91 ± 0.37 |
| VLPKPKVISCLEQGEEPWVQVSPE [ZNF75A] | 4.21 ± 0.23 | 4.07 ± 0.3 |
| QLWELGKVLRKAGLSAGYVDAGAE [LPCAT4] | 2.13 ± 0.27 | 2.13 ± 0.36 |
| GFSLEDPQTHSNRIYRMIKLGLGI [HSP90AB1] | 2.06 ± 0.42 | 2.29 ± 0.3 |
| FSVKFEVQAPRWGNPRALSFVLSS [OAS1] | 2.94 ± 0.27 | 3.01 ± 0.49 |
| YQLLATHVPTVWAIDQYRVCQEVL [RHOBTB1] | 2.61 ± 0.59 | 2.38 ± 0.47 |
| TVGDLGIVRRRSRDVPESPQHAAD [YJU2B] | 5.08 ± 0.25 | 5.3 ± 0.17 |
| EGLNSSLCSPGHERRGTPADTEEP [PSD2] | 5.39 ± 0.37 | 5.53 ± 0.19 |
| QPGLSFLNLGSGTGYLSTMVGLIL [PCMTD1] | 2.15 ± 0.29 | 2.2 ± 0.31 |
| PEASHLRFRRFRFQEAAGPREALS [ZNF263] | 3.15 ± 0.42 | 3.31 ± 0.51 |

| Sequence | protein stability index (treatment: DMSO) | protein stability index (treatment: MLN4924 1 uM, 8 h) |
| --- | --- | --- |
| LSLLVHNVSVMHKSLDNMPNDEHW [FBXO33] | 2.36 ± 0.31 | 2.4 ± 0.14 |
| QGEEPWVQVSPEFKDSAGKSPTGL [ZNF75A] | 4.87 ± 0.22 | 5.04 ± 0.22 |
| ISGREVFEFRPELVNDDDEEADDT [ZC3H15] | 5.51 ± 0.26 | 5.47 ± 0.16 |
| SVLSACDNLSDLVMVRWNKSLEWS [IQUB] | 2.04 ± 0.24 | 2.33 ± 0.12 |
| QICGTHRQTKKMFCDMDKSLLCLL [TRIM43] | 2.77 ± 1 | 2.18 ± 0.36 |
| EEYPGITAEDSNDIYILPSDNSGQ [BCL2L13] | 5.25 ± 0.18 | 5.14 ± 0.21 |
| MGNSHCVPQAPRRLRASFSRKPSL [PLEKHN1] | 3.66 ± 0.096 | 3.69 ± 0.11 |
| ITCLTCQGTGYIPTEQVNELVALI [TMEM106C] | 2.17 ± 0.3 | 2.2 ± 0.27 |
| MPNVMTGTMGMAPLGNTPMMNQSM [CLINT1] | 3.68 ± 0.23 | 3.48 ± 0.27 |
| YDQQIWEKSIEQTQIKGLKNKPKK [PHTF1] | 4.9 ± 0.093 | 5.17 ± 0.083 |
| APNSLSAPTMLHNSSGDFSQAHST [TRAF3IP2] | 4.84 ± 0.14 | 4.78 ± 0.28 |
| GPAGGLADLSSGSSGEDDDFKSCP [PWWP2B] | 5.43 ± 0.22 | 5.45 ± 0.26 |
| QRQVWLLFEYPESSGPARGIAIVS [KCNA3] | 2.69 ± 0.21 | 2.48 ± 0.77 |
| QLAAGRHGDDLKNTKNEISELTRL [KRT71] | 4.58 ± 0.32 | 4.52 ± 0.15 |
| SMFSRVGGIIAPFIPSLKYVQWSL [SLC22A15] | 2.54 ± 0.41 | 2.5 ± 0.65 |
| QEHQSALEEAKQPKNDNVVIPECA [SMOC2] | 5.51 ± 0.23 | 5.46 ± 0.27 |
| KIWLVVPSLLELAWEKLLAAFPNL [KLHDC10] | 2.84 ± 0.16 | 2.73 ± 0.11 |
| GVGGWRDYGVDPSQFSGTLMRTCE [PPTC7] | 2.81 ± 0.36 | 3.28 ± 0.74 |
| TKLRLERVKFRRQEANARERNRMH [NEUROD6] | 3.67 ± 0.14 | 3.92 ± 0.4 |
| LPSRPPPLLSPLLASRNPCPWHYL [RSPH3] | 2.27 ± 0.2 | 2.15 ± 0.22 |
